From paper PMC11672532 come the findings set out here.

The data set deals with c-Met ((A549 lung cancer cells)) (UniProt P08581). The data set can be described thus: flow cytometry on cells. The conditions noted are these: 5' and 3' cholesterol on ASO strand; Intact A549 or HeLa cells, FAM-labeled DNA, flow cytometry (30 min in Fig S8); binding buffer and temperature not given in the material. In general terms: In flow cytometry, cells or beads pass a laser one at a time.
Chain of c-Met ((A549 lung cancer cells)) (P08581 25-1390): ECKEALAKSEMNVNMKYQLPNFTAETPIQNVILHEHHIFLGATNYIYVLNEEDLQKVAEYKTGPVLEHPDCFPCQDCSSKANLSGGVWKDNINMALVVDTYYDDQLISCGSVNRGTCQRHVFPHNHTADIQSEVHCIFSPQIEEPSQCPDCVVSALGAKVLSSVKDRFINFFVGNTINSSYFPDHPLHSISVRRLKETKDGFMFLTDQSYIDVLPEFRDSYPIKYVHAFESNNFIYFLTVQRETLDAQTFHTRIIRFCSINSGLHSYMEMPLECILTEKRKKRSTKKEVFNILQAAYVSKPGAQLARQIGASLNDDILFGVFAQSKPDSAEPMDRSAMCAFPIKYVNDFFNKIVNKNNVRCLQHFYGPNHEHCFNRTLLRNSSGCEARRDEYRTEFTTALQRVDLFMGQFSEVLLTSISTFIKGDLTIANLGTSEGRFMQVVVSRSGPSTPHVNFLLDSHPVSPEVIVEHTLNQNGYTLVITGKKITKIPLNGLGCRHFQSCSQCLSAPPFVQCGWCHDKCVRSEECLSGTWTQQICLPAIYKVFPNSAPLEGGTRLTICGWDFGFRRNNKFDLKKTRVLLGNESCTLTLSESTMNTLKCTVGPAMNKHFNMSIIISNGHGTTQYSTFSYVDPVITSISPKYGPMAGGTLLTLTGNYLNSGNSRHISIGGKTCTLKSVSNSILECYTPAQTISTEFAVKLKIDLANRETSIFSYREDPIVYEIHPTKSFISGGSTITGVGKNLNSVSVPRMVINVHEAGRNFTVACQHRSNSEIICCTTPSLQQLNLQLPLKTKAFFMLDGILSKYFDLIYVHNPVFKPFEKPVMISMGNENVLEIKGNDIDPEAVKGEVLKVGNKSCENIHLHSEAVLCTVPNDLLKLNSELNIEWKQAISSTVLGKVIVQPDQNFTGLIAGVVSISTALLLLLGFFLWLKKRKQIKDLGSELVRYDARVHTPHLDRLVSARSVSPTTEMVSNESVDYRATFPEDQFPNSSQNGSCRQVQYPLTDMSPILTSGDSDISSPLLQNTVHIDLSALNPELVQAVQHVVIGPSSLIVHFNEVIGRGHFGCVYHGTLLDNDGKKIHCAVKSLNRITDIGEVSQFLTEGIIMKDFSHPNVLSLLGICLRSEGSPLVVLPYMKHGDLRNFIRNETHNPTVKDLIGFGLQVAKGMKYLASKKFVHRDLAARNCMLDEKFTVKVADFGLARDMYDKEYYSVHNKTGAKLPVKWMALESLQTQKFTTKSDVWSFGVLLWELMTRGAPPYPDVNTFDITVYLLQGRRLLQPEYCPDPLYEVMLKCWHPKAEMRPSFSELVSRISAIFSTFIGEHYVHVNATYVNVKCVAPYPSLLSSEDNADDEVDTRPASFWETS

“TGGATGGTAGCTCGGTCGGGGTGGGTGGGTTGGCAAGTCT / GGTGTCACAGGCGGGACCCCCGACCGA / GTCCCGCCTGTGACACCTCCCGCCTGTGACATGCATTTTTTTTCCCGCCTGTGACATGCATTGTCCCGCCTGTGACACC / CAACCCACCCGGTGTCACAGGCGGGAC [NT-Ch2-Apt (DNA nanotweezer)]” yielded a binding signal (fold (A549 / HeLa fluorescence)) of 2.5.
